Measurements taken from patent publication US20240307455A1, “COMPOSITIONS, DEVICES AND METHODS FOR TREATING IMMUNE-MEDIATED INFLAMMATORY DISEASES” (SIGILON THERAPEUTICS, INC., priority 2021, published 2024).
One block for each molecule: values may come before it.

Columns and labels:
[1] = in vivo; cited from earlier work
[2] = target: T1, IL-22 (Homo sapiens, UniProt Q9GZX6); test: Inhibition of IL22 activity in Col205 cells; type: cell-based; details: ARPE IL-22 supernatant 1%; rhIL22BP 100, 50, 25 and 1 ng/ml
T1 construct: made in house; host or cells: genetically modified ARPE-19 cells; filter-sterilized culture supernatant, not purified
T1 sequence (Q9GZX6 34-179): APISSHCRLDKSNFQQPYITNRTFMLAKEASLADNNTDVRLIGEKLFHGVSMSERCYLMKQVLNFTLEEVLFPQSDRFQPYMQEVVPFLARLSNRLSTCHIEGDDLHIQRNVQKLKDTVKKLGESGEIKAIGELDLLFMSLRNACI
Experimental: Inhibition of IL22 activity in Col205 cells. Col205 cells were seeded at a density of 2×10^5 cells/well in a 96 well plate and starved in serum free media overnight. The serum free media was removed and the cells were treated with 190 ul of recombinant human IL-22 binding protein (rhIL22BP) diluted in RPMI/10% FBS at concentrations of 100, 50, 25 and 1 ng/ml. Filter sterilized supernatant from hIL22-producing ARPE-19 cells (ARPE IL-22) or unmodified ARPE-19 cells (ARPE WT) was diluted 1:5 in RPMI/10% FBS and 10 ul was added to the wells for a final concentration of 1%. The plate was incubated overnight at 37 C, 5% CO2 for ˜18 h. The supernatant was transferred to a new 96 well plate and centrifuged.

[3] = tested on: Colo205 cells; test: Induction of IL-10 production by Colo205 cells (ELISA); type: cell-based, human; details: ~18 h incubation
Experimental: Balb-3T3 cells and ARPE-19 cells were genetically modified to express and secrete murine IL-22 and human IL-22, respectively. The ability of the genetically modified ARPE-19 cells to produce active hIL-22 in vitro was assessed by the induction of IL-10 production by Colo205 cells, which are derived from human colonic epithelium.
Generation of IL-22 response curve. Col205 cells were seeded at a density of 2×10^5 cells/well in a 96 well plate and starved in serum free media overnight. The serum free media was removed from the wells and the cells were treated with rhIL-22 (peprotech Cat #200-22) diluted in RPMI/10% FBS at half log dilutions to generate final concentrations of 1000, 316.46, 100.14, 31.69, 10.02, 3.17, 1 and 0.32 pg/ml. The plate was incubated overnight at 37 C, 5% CO2 for ˜18 h. The supernatant was transferred to a new 96 well plate and centrifuged.
Biological activity of hIL-22 produced by genetically modified ARPE-19 cells. Col205 cells were seeded at a density of 2×10^5 cells/well in a 96 well plate and starved in serum free media overnight. The serum free media was removed and the cells were treated with filter sterilized supernatant from hIL22 producing ARPE-19 cells (ARPE-19 IL-22) or unmodified ARPE-19 cells (ARPE-19 WT) diluted in RPMI/10% FBS at final concentrations of 1%, 0.5%, 0.25% and 0.125%. The plate was incubated overnight at 37 C, 5% CO2 for ˜18 h. […]

Molecule: human IL-10: human IL-10 protein in plasma
half-life of human IL-10 in plasma [1]: about 2 hours

IL-10 production induced by hIL-22 in the presence of rhIL22BP [2]: blocked
B1: rhIL22BP: recombinant human IL-22 binding protein, an endogenous and specific IL-22 inhibitor (protein, UniProt Q969J5 22-263, looked up)
Interleukin-22 receptor …: TQSTHESLKPQRVQFQSRNFHNILQWQPGRALTGNSSVYFVQYKIMFSCSMKSSHQKPSGCWQHISCNFPGCRTLAKYGQRQWKNKEDCWGTQELSCDLTSETSDIQEPYYGRVRAASAGSYSEWSMTPRFTPWWETKIDPPVMNITQVNGSLLVILHAPNLPYRYQKEKNVSIEDYYELLYRVFIINNSLEKEQKVYEGAHRAVEIEALTPHSSYCVVAEIYQPMLDRRSQRSEERCVEIP

B2: rhIL-22: rhIL-22 (peprotech Cat #200-22) (protein, UniProt Q9GZX6 34-179, looked up)
Interleukin-22: T1 sequence (Q9GZX6 34-179)
IL-10 production by Colo205 cells [3]: induced IL-10 production

B3: hIL-22: human IL-22 in filter sterilized supernatant from hIL22 producing genetically modified ARPE-19 cells (protein, UniProt Q9GZX6 34-179, looked up)
Interleukin-22: T1 sequence (Q9GZX6 34-179)
IL-10 production by Colo205 cells [3]: functionally active
